Target: mCh-vinT12-cBAK (constitutively active, opened form of full-length vinculin, mCherry-tagged, with cBAK) (gallus gallus) (UniProt P12003)
Assay: Fluorescence Loss After Photoactivation

Sequence of UniProt P12003 (P12003 whole entry): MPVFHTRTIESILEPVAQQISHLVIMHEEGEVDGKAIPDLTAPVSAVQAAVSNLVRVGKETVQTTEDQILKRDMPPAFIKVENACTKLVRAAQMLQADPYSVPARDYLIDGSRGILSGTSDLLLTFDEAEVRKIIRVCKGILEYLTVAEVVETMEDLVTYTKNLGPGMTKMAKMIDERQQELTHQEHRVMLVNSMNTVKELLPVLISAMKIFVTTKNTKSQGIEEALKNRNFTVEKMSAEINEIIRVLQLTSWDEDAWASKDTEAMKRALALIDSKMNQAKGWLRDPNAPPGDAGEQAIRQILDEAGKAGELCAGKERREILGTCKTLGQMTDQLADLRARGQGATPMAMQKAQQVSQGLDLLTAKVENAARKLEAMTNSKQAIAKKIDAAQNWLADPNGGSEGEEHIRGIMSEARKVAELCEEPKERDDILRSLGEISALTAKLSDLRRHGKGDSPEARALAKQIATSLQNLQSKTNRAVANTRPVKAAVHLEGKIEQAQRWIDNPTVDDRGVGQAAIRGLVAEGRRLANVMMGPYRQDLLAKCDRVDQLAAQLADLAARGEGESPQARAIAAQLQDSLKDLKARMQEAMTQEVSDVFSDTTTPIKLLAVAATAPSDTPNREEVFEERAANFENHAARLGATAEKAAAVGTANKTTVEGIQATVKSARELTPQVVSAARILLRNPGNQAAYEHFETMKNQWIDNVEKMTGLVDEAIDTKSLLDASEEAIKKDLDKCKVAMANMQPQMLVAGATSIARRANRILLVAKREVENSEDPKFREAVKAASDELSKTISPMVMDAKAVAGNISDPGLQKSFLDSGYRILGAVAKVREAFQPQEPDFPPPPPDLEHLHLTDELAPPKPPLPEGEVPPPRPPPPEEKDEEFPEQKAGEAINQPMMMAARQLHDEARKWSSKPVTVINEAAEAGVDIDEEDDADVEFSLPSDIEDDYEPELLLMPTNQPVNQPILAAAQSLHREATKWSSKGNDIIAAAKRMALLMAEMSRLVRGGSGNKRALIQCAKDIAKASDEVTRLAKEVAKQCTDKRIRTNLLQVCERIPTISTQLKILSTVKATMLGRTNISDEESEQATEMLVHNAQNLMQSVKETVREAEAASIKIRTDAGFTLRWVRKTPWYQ

**Q.** Which mobile fraction (Mf) in FLAP does the source give for “Photo-Activatable (PA) GFP-TalinFL (from UniProt P26039 1-2541) (natural protein)” here?
**A.** The mobile fraction (Mf) in FLAP was < 20%.
